Measured values from patent US20070031511A1, “Method of treatment” (priority 2003, published 2007).

Experiments:
[1] = molecular target: Ggly receptor on IMGE-5 cells; test: cell-based or functional assay
[2] = molecular target: Ggly receptor on IMGE-5 cells; test: [125I]-Ggly binding to IMGE-5 cells in the presence of 2 moles Bi3+/mole Ggly

ED50 (nM), proliferation of IMGE cells, thymidine uptake [1]: 0.8 nM
% inhibition of binding by bismuth ions [2]: 50%
B1: glycine-extended gastrin17 (Ggly) (peptide)
peptide: XGPWLEEEEEAYGWMDFG
modifications: N-terminal pyroglutamate (Z); 125I-iodinated (IODO-GEN) in the receptor binding assay
